Results published in paper doi:10.64898/2025.12.15.694324.

Target: PARP15^CAT WT, isolated catalytic domain of human PARP15, batch with His-tag (human)
Experiment: native MS

Substance “PARP15^CAT WT, isolated catalytic domain of human PARP15, batch with His-tag (domain or fragment)” has a stoichiometry N of 2.
